From patent US20230295310A1 (ABCELLERA BIOLOGICS, published 2023)
Positions count from the first letter of the chain named. Blank lines part the entries; values can stand above or below the binder they belong to.

Target: human CD3 (human, UniProt P07766 23-207; P04234 22-171; P09693 23-182)
Test: cell-based or functional assay

human CD3, sequence (P07766 23-207, chain 1 of 3): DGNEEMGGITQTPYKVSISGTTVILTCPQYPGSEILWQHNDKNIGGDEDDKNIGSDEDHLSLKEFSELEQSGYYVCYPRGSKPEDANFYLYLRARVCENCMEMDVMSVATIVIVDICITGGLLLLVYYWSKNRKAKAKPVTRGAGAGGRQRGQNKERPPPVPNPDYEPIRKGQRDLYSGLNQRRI
human CD3, sequence (P04234 22-171, chain 2 of 3): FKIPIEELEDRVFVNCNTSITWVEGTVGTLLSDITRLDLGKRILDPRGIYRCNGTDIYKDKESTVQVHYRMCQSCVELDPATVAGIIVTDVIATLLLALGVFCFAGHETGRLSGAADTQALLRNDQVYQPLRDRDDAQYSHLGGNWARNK
human CD3, sequence (P09693 23-182, chain 3 of 3): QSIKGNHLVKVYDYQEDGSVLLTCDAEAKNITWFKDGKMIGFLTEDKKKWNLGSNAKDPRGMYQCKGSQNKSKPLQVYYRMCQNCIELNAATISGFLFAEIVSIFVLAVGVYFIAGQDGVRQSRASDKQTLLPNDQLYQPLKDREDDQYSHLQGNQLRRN

CD4 EC50 (nM); CD69/CD25 on human T cells, plate-coated antibody: 6.76 nM
CD8 EC50 (nM); CD69/CD25 on human T cells, plate-coated antibody: 6.65 nM
B1: mAb 49 (antibody, V domains shown)
VH: EVQLVESGGGLVPPGGSLRLSCVASGFTLRSYTMNWVRQAPGQGLEWISYISSTSRTIYYSDSVKGRFTISRDNAKNSLYLQVNSLRDEDTALYYCAREDYYDSSGFDCWGQGTLVTVSS
VL: AIRMTQSPSSFSASTGDRVTITCRASQGIFNYLAWYQQKPGKAPKLLIYSTSTLQSGVPSRFSGSGSGTDFTLTIRGLQSEDLATYYCQQYYSFPRTFGQGTKVDIK

CD4 EC50 (nM); CD69/CD25 on human T cells, plate-coated antibody: 6.76 nM
CD8 EC50 (nM); CD69/CD25 on human T cells, plate-coated antibody: 7.89 nM
B4: mAb 161 (antibody, V domains shown)
VH: EVQLVESGGGLVQPGRSLRLSCAASGITFADYTMHWVRQAPGKGLEWVSGISWNSGSIDYADSVKGRFTISRDNAKKTLYLQMNRLRAEDTALYYCAKDSSGYGHYYFYYLDVWGKGTTVTVSS
VL: EIVMTQSPATLSVSPGERATLSCRASQSVSNNLAWYQQKPGQAPRLLIYSTSTRATGIPARFSGSRSGTEFTLTISSLQSEDSAVYYCQQYNNWPHFGQGTRLEIK

CD4 EC50 (nM); CD69/CD25 on human T cells, plate-coated antibody: 12.6 nM
CD8 EC50 (nM); CD69/CD25 on human T cells, plate-coated antibody: 12.7 nM
B5: mAb 162 (antibody, V domains shown)
VH: EVQLVESGGGLVQPGRSLRLSCAASGFTFDNYAMHWVRQAPGKGLEWVSGISWNSGSIGYADSVKGRFTISRDNAKNSLYLELNSLRAEDTALYYCAKDSSGYGYYYNYYMDVWGKGTTVTVSS
VL: B4 VL with S30R, N31S, S50G, T51A, R61K, R66G, S83F, Q90Y, N92Y

CD4 EC50 (nM); CD69/CD25 on human T cells, plate-coated antibody: 12 nM
CD8 EC50 (nM); CD69/CD25 on human T cells, plate-coated antibody: 11.9 nM
B6: mAb 159 (antibody, V domains shown)
VH: B5 VH with D30N, N31G, A33T, A40V, I58V, Y80F, E82Q, L83M, Y105H, N108Y
VL: B4 VL with S30R, S50G, T51A, R66G, S83F, V85L, Q90L

CD4 EC50 (nM); CD69/CD25 on human T cells, plate-coated antibody: 26.9 nM
CD8 EC50 (nM); CD69/CD25 on human T cells, plate-coated antibody: 32 nM
B7: mAb 142 (antibody, V domains shown)
VH: QVQLVESGGGVVQPGRSLRLSCAASGFTFSSYGMHWVRQAPGKGLEWVAVIWYDGSNKYYADSVKGRFTISRDNSKNTLYLQMNSLRAEDTAVYYCARTGITGTTAYFYFDSWGQGTLVTVSS
VL: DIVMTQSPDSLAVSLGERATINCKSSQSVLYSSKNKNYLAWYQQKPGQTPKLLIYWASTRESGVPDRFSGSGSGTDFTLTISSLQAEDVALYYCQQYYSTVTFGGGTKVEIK

CD4 EC50 (nM); CD69/CD25 on human T cells, plate-coated antibody: 12.5 nM
CD8 EC50 (nM); CD69/CD25 on human T cells, plate-coated antibody: 12.6 nM
B8: mAb 146 (antibody, V domains shown)
VH: B7 VH with S30I, S31T, N57H, T78M, A88V, S112N
VL: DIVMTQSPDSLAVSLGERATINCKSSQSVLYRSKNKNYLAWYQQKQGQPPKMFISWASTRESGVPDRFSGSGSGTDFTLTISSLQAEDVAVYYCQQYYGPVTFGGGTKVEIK

CD4 EC50 (nM); CD69/CD25 on human T cells, plate-coated antibody: 13.3 nM
CD8 EC50 (nM); CD69/CD25 on human T cells, plate-coated antibody: 13.3 nM
B9: mAb 131 (antibody, V domains shown)
VH: EVQLVESGGGLVKTGGSLRISCVASGFSFKKAWMNWVRQAPGKGLEWVGRIKRNTDGGTIDYAAPVKGRFSLSRDDSKNTLFLQMNSLKTEDTAVYFCTTLDSSSYYVGYYYMDVWGKGTTVTVSS
VL: DIHMTQSPSSVSASVGDRVTITCRASQDINNWLAWYQQKPGKAPKLLIYTASSLQSGVPSRFSGSGSGTDFTLTISSLQPEDFATYFCQQAHSLPITFGQGTRLGIK

CD4 EC50 (nM); CD69/CD25 on human T cells, plate-coated antibody: 13.9 nM
CD8 EC50 (nM); CD69/CD25 on human T cells, plate-coated antibody: 13.6 nM
B11: mAb 133 (antibody, V domains shown)
VH: B9 VH with I20L, N35S, I60A, S71T, N79K, T93S, F97Y, T99V
VL: B9 VL with H3Q, T20S, S76G, F87Y, G105E

CD4 EC50 (nM); CD69/CD25 on human T cells, plate-coated antibody: 6.25 nM
CD8 EC50 (nM); CD69/CD25 on human T cells, plate-coated antibody: 6.29 nM
B14: mAb 155 (antibody, V domains shown)
VH: B9 VH with I20L, I60A, S71T, N79K, F97Y
VL: B9 VL with H3Q, T20I, S76G, F87Y, T97S, G105D

CD4 EC50 (nM); CD69/CD25 on human T cells, plate-coated antibody: 22.1 nM
CD8 EC50 (nM); CD69/CD25 on human T cells, plate-coated antibody: 22.8 nM
B17: mAb 141 (antibody, V domains shown)
VH: QVQLVQSGAEVKKPGASVKVSCKASGYTFTSYYIHWVRQAPGQGLDWMGIINPSGGITGYAQKLQGRVTMTRDTSTTTVYMELSSLRSDDTAVYYCARGVRGNYYYYYMDVWGKGTTVTVSS
VL: EIVLTQSPDFQSVTPKEKVTITCRASQSIGSKLHWYQQKPDQSPKLLIKYASQSFSGVPSRFSGSGSGTDFNLTINSLEAEDAATFYCHQSSGLPYTFGQGTKLEIK

CD4 EC50 (nM); CD69/CD25 on human T cells, plate-coated antibody: 13.3 nM
CD8 EC50 (nM); CD69/CD25 on human T cells, plate-coated antibody: 14.9 nM
B18: mAb 145 (antibody, V domains shown)
VH: B17 VH with S31N, L64F
VL: B17 VL with Y50F, A80P

CD4 EC50 (nM); CD69/CD25 on human T cells, plate-coated antibody: 13.7 nM
CD8 EC50 (nM); CD69/CD25 on human T cells, plate-coated antibody: 17.8 nM
B21: mAb 140 (antibody, V domains shown)
VH: B7 VH with S31T, N57H, S112Y
VL: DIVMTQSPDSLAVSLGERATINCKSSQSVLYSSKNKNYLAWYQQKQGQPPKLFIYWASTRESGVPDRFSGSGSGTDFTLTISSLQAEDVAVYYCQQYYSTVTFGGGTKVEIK

Continued, binder first:

B2: mAb 158 (antibody, V domains shown)
VH: B4 VH with I27F, A40V, I58V, R85S
VL: B4 VL with S26T, N31S
CD4 EC50 (nM); CD69/CD25 on human T cells, plate-coated antibody: 6.67 nM
CD8 EC50 (nM); CD69/CD25 on human T cells, plate-coated antibody: 6.62 nM

B3: mAb 160 (antibody, V domains shown)
VH: EVQLVESGGGLVQPGRSLRLSCAVSGFTFNDYTMHWVRQVPGKGLEWVSGISWNSGSIGYADSVKGRFTISRDNAKNSLYLQMNSLRAEDTALYFCAKDSSGYGHYYYYYMDVWGRGTTVTVSS
VL: B4 VL with S30R, N31K, S50G, T51A, R66G, S83F, Q90L
CD4 EC50 (nM); CD69/CD25 on human T cells, plate-coated antibody: 6.95 nM
CD8 EC50 (nM); CD69/CD25 on human T cells, plate-coated antibody: 8.47 nM

B10: mAb 164 (antibody, V domains shown)
VH: B9 VH with I20L, I60A, S71T, N79K, F97Y
VL: B9 VL with H3Q, N30K, S76G, F87Y, G105E
CD4 EC50 (nM); CD69/CD25 on human T cells, plate-coated antibody: 6.84 nM
CD8 EC50 (nM); CD69/CD25 on human T cells, plate-coated antibody: 6.62 nM

B12: mAb 156 (antibody, V domains shown)
VH: B9 VH with I20L, I60A, S71T, N79K, F97Y
VL: B9 VL with H3Q, T20I, P40A, S76G, F87Y, G105E
CD4 EC50 (nM); CD69/CD25 on human T cells, plate-coated antibody: 6.25 nM
CD8 EC50 (nM); CD69/CD25 on human T cells, plate-coated antibody: 6.25 nM

B13: mAb 132 (antibody, V domains shown)
VH: DVQLVESGGGTVKTGGSLRLSCVASGFSFKKAWMNWVRQAPGKGLEWVGRIKKNSDGGTADYAAPVKGRFTISRDDSKKTLYLQMNSLQTEDTAVYYCTTLDSSSWYVGYYYMDVWGKGTTVTVSS
VL: B9 VL with H3Q, T20I, K42I, G68V, T69S, S76G, F87Y, G105E
CD4 EC50 (nM); CD69/CD25 on human T cells, plate-coated antibody: 6.39 nM
CD8 EC50 (nM); CD69/CD25 on human T cells, plate-coated antibody: 6.34 nM

B15: mAb 157 (antibody, V domains shown)
VH: B9 VH with I20L, N54T, T55A, T59A, I60T, S71T, F82Y, F97Y, Y106W
VL: B9 VL with S7A, I21F, F87Y
CD4 EC50 (nM); CD69/CD25 on human T cells, plate-coated antibody: 6.42 nM
CD8 EC50 (nM); CD69/CD25 on human T cells, plate-coated antibody: 6.57 nM

B16: mAb 163 (antibody, V domains shown)
VH: B9 VH with I20L, A40V, I60A, S71T, N79K, F97Y
VL: B9 VL with H3Q, T20I, S76G, F87Y, G105E
CD4 EC50 (nM); CD69/CD25 on human T cells, plate-coated antibody: 6.3 nM
CD8 EC50 (nM); CD69/CD25 on human T cells, plate-coated antibody: 6.99 nM

B19: mAb 137 (antibody, V domains shown)
VH: QVQLVESGGGVVQPGRSLRLSCAASGFTFSTYGMHWVRQAPGKGLEWVAVIWYDGSHKYYADSVKGRFTISRDNSKKTLYLQMNSLRAEDTGIYYCARTGISGNMSYFYFDHWGQGILVTVSS
VL: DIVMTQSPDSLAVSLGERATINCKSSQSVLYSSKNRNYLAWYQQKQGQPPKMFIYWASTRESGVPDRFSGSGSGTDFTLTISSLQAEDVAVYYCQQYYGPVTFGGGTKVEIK
CD4 EC50 (nM); CD69/CD25 on human T cells, plate-coated antibody: 13.1 nM
CD8 EC50 (nM); CD69/CD25 on human T cells, plate-coated antibody: 14.1 nM

B20: mAb 153 (antibody, V domains shown)
VH: B7 VH with S31T, N57H, A61S, A88V, V93I
VL: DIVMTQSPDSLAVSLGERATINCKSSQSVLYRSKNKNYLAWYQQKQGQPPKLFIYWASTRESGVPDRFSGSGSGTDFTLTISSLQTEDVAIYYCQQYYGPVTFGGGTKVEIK
CD4 EC50 (nM); CD69/CD25 on human T cells, plate-coated antibody: 8.76 nM
CD8 EC50 (nM); CD69/CD25 on human T cells, plate-coated antibody: 8.56 nM

B22: mAb 42 (antibody, V domains shown)
VH: QAQLVQSGSELKKPGASVKVSCKASGYTFTKHSMNWVRQAPGQGLEWMGWINTNTGNPTYAQGFTGRFVFSLDTSVTTAYLQISSLKAEDTAVYYCAREGDYDFWSGFFNFDYWGQGTLVTVSS
VL: DIQMTQSPSSLSASVGDRVTITCRASQGIRNDLGWYQQKPGKAPKRLIYAASSLQSGVPSRFSGSGSGAEFTLTISSLQPEDFATYYCLQHNSYPRTFGQGTKVEIK
CD4 EC50 (nM); CD69/CD25 on human T cells, plate-coated antibody: 25.4 nM
CD8 EC50 (nM); CD69/CD25 on human T cells, plate-coated antibody: 25.5 nM

B23: mAb 50 (antibody, V domains shown)
VH: B22 VH with K31R, S33A
VL: B22 VL with Y36F, K45T
CD4 EC50 (nM); CD69/CD25 on human T cells, plate-coated antibody: 26.3 nM
CD8 EC50 (nM); CD69/CD25 on human T cells, plate-coated antibody: 24.5 nM

B24: mAb 52 (antibody, V domains shown)
VH: QVQLVQSGAEVKKPGASVKVSCKASGYTFTSHDINWVRQATGQGLEWMGWLNPNSGKTGYAQKFQGRVTMARDTSMYTADMELSSLRFEDTAVYYCARVGHYDMWPGFFSFDYWGQGTLVTVSS
VL: B22 VL with V19I, T20I, G28D, G66R, A69T, Q79H, N92R, R96Y, K103N, V104L
CD4 EC50 (nM); CD69/CD25 on human T cells, plate-coated antibody: 8.79 nM
CD8 EC50 (nM); CD69/CD25 on human T cells, plate-coated antibody: 9.48 nM
